The Kd is a measure of binding affinity in units of concentration. A low value points to tighter binding. Broadly, the IC50 is the midpoint of a concentration-inhibition curve. A lower IC50 goes with greater potency in that assay.

We go through one molecule from patent publication US20090238821A1 (Eli Lilly, published 2009).

One assay concerns the target T1, Amyloid-beta 1-42 (UniProt P05067 672-713).
T1 construct: domain: Amyloid-beta 1-42; Numbers 1-42 count on the Aβ peptide, not on the APP entry; also called Aβ42; Aβ1-42
Kind of assay: BIAcore, essentially as in Example 15. (In SPR one partner is held on a chip, and binding of the other changes the refractive index at the surface.)

Assay [1] has as its target T2, β-amyloid peptide (1-42) conjugated to BSA (UniProt P05067 672-713, C-terminal Cys43 coupled to maleimide-activated bovine serum albumin).
T2 construct: domain: Aβ1-42; Coated on ELISA plates at 10 µg/mL; the carrier BSA is not written as a chain; also called Aβ1-42-BSA conjugate; Aβ1-42-Cys-BSA conjugate
Kind of assay: competitive ELISA on Aβ1-42-BSA, competitor of biotinylated Mu266 (0.3 µg/ml), first set. Here is the method: (§1) The Aβ₁₋₄₂-BSA conjugate was prepared by dissolving 7.5 mg of Aβ₁₋₄₂-Cys₄₃(C-terminal cysteine Aβ₁₋₄₂, AnaSpec) in 500 μL of dimethylsulfoxide, and then immediately adding 1,500 μL of distilled water. Two (2) milligrams of maleimide-activated bovine serum albumin (Pierce) was dissolved in 200 μL of distilled water. The two solutions were combined, thoroughly mixed, and allowed to stand at room temperature for two (2) hours. A gel chromatography column was used to separate unreacted peptide from Aβ₁₋₄₂-Cys-BSA conjugate.
(§2) After washing the wells with phosphate buffered saline (PBS) containing 0.1% Tween 20 (Washing Buffer) using an ELISA plate washer, the wells were blocked by adding 300 μL of SuperBlock reagent (Pierce) per well. After 30 minutes of blocking, the wells were washed Washing Buffer and excess liquid was removed.
(§3) As a background control, 100 μl of ELISA Buffer was added. The ELISA plate was incubated at room temperature for 90 min. After washing the wells with Washing Buffer, 100 μl of 1 μg/ml HRP-conjugated streptavidin (Cat # 21124, Pierce) was added to each well. […] Absorbance was read at 415 nm. The absorbances were plotted against the log of the competitor concentration, curves were fit to the data points (using Prism) and the IC50 was determined for each antibody using methods well-known in the art.
For orientation: In an ELISA, binding on a coated surface is turned into a signal by an enzyme label.

For assay [2], the target named is T2, β-amyloid peptide (1-42) conjugated to …. The assay is described as follows: competitive ELISA on Aβ1-42-BSA, competitor of biotinylated Mu266 (0.3 µg/ml), second set. As to the method:
as §1, §2, §3

Description for Amyloid-beta 1-42: Antibody affinity (KD=Kd/Ka) was determined using a BIAcore biosensor 2000 and data analyzed with BIAevaluation (v. 3.1) software. A capture antibody (rabbit anti-mouse) was coupled via free amine groups to carboxyl groups on flow cell 2 of a biosensor chip (CM5) using N-ethyl-N-dimethylaminopropyl carbodiimide and N-hydroxysuccinimide (EDC/NHS). A non-specific rabbit IgG was coupled to flow cell 1 as a background control. Monoclonal antibodies were captured to yield 300 resonance units (RU). […] To regenerate the chip, bound anti-Aβ antibody was eluted from the chip using a wash with glycine-HCl (pH 2). A control injection containing no amyloid-beta served as a control for baseline subtraction.

B1: humanized 266 antibody (antibody, human IgG1, kappa, V domains shown)
VH: EVQLVESGGGLVQPGGSLRLSCAASGFTFSRYSMSWVRQAPGKGLELVAQINSVGNSTYYPDTVKGRFTISRDNAKNTLYLQMNSLRAEDTAVYYCASGDYWGQGTLVTVSS
VL: DVVMTQSPLSLPVTLGQPASISCRSSQSLIYSDGNAYLHWFLQKPGQSPRLLIYKVSNRFSGVPDRFSGSGSGTDFTLKISRVEAEDVGVYYCSQSTHVPWTFGQGTKVEIKR
notes: Mature antibody expressed from pVk-Hu266 and pVg1-Hu266 in Sp2/0 cells (clone 1D9), purified on protein A; human kappa and gamma 1 constant regions; also called Hu266
Molecule B1 gave an equilibrium dissociation constant (Kd) with Amyloid-beta 1-42 of 4 pM. Moreover, the values for the IC50 in assay [1] and in assay [2] were 7.5 µg/mL and 4 µg/mL, respectively.
